Article PMC7949091

Biological target: HA-tagged extracellular domain of EspIgR (E. sinensis polymeric immunoglobulin receptor) (E. sinensis)

For “Flag-tagged EsVg-DUF1943 domain (domain or fragment)”, the percentage of hemocyte phagocytosis of FITC-labeled S. aureus coated with rEsVg-DUF1943, in vitro, flow cytometry (controls ∼11.39%; with siEspIgR ∼5.57%) was 22.1% and the percentage of hemocyte phagocytosis of FITC-labeled V. parahaemolyticus coated with rEsVg-DUF1943, in vitro, flow cytometry (with siEspIgR ∼6.10%) was 21.5%.
